B1: FCHO1 (parent)
chain: FSDPSQSDPETKDFWLNMAALTEA

Variants of: B1
Test: protein stability index of a GFP-peptide fusion (GPS, HEK-293T) (PSI 1-6); higher = more stable
Conditions: c terminus: a fixed tail appended
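Further: lentivirally expressed fusions sorted by FACS into six bins by GFP to DsRed ratio, PSI derived from sequencing read proportions per bin multiplied by bin number.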

Row | Variant | protein stability index
1 | FSDPSQSDPETEDFWLNMAALTEA | 3.6
2 | FSDPSQSDPETMDFWLNMAALTEA | 3.07
3 | FSDPSQSDPETPDFWLNMAALTEA | 3.1
4 | FLDPSQSDPETKDFWLNMAALTEA | 2.65
5 | FFDPSQSDPETKDFWLNMAALTEA | 2.89
6 | FYDPSQSDPETKDFWLNMAALTEA | 3.28
7 | FNDPSQSDPETKDFWLNMAALTEA | 1.53
8 | FTDPSQSDPETKDFWLNMAALTEA | 2.11
9 | FMDPSQSDPETKDFWLNMAALTEA | 3.5
10 | FGDPSQSDPETKDFWLNMAALTEA | 2.32
11 | FKDPSQSDPETKDFWLNMAALTEA | 4.22
12 | FWDPSQSDPETKDFWLNMAALTEA | 2.93
13 | FSDPSQSDPETKDFWKNMAALTEA | 2.36
14 | FSDPSQSDPETKDFWRNMAALTEA | 2.21
15 | FSDPSQSDPETKDFWGNMAALTEA | 2.41
16 | FSDPSQSDPETKDFWANMAALTEA | 2.87
17 | FSDPSQSDPETKDFWDNMAALTEA | 5.04
18 | FSDPSQSDPETKDFWCNMAALTEA | 2.1
19 | FSDPSQSDPETKDFWVNMAALTEA | 2.22
20 | FSDPSQSDPETKDFWFNMAALTEA | 2.41
21 | FSDPSQSDPETKDFWENMAALTEA | 4.87
22 | ASDPSQSDPETKDFWLNMAALTEA | 4.73
23 | ISDPSQSDPETKDFWLNMAALTEA | 4.11
24 | ESDPSQSDPETKDFWLNMAALTEA | 4.97

Row | Variant | protein stability index
25 | FSDPSQSDTETKDFWLNMAALTEA | 3.19
26 | FSDPSQSDVETKDFWLNMAALTEA | 3.54
27 | FSDPSQSDRETKDFWLNMAALTEA | 2.8
28 | FSDPSQSDNETKDFWLNMAALTEA | 2.63
29 | FSDPSQSDPETKDFWLNMAALTWA | 2.04
30 | FSDPSQSDPETKDFWLNMAALTRA | 3.31
31 | FSDPSQSDPETKDFWLNMAALTFA | 1.59
32 | FSDPSQSDPETKDFWLNMAALTKA | 2.3
33 | FSDPSQSDPETKDFWLNMAALTAA | 2.15
34 | FSDPSQSDPETKDFWLNMAALTIA | 1.9
35 | FSDPSQSDPETKDFWLNMAALTCA | 1.63
36 | FSDPSQSDPETKDFWLNMAALTTA | 2.79
37 | FSDPSQSDPETKDFWLNMAALTHA | 2.17
38 | FSDPSQSDPETKDFWLNMAALTPA | 2.33
39 | FSDPSQSDPETKDFWLNMAALTNA | 2.58
40 | FSDPSQSDPETKDSWLNMAALTEA | 4.78
41 | FSDPSQSDPETKDTWLNMAALTEA | 4.57
42 | FSDPSQSDPETKDPWLNMAALTEA | 4.58
43 | FSDPSQSDPETKDCWLNMAALTEA | 4.11
44 | FSDPSQSDPETKDDWLNMAALTEA | 4.88
45 | FSDPSQSDPETKDAWLNMAALTEA | 4.17
46 | FSDPSQSDPETKDLWLNMAALTEA | 3.69
47 | FSDPSQSDPETKDEWLNMAALTEA | 4.99
48 | FSDPMQSDPETKDFWLNMAALTEA | 3.35

Row | Variant | protein stability index
49 | FSDPPQSDPETKDFWLNMAALTEA | 2.94
50 | FSDPYQSDPETKDFWLNMAALTEA | 2.45
51 | FSDPTQSDPETKDFWLNMAALTEA | 2.84
52 | FSDPLQSDPETKDFWLNMAALTEA | 2.84
53 | FSDPGQSDPETKDFWLNMAALTEA | 2.66
54 | FSDPFQSDPETKDFWLNMAALTEA | 2.27
55 | FSDPSQGDPETKDFWLNMAALTEA | 2.6
56 | FSDPSQCDPETKDFWLNMAALTEA | 2.9
57 | FSDPSQQDPETKDFWLNMAALTEA | 3.18
58 | FSDPSQWDPETKDFWLNMAALTEA | 2
59 | FSDPSQIDPETKDFWLNMAALTEA | 2.38
60 | FSDPSQVDPETKDFWLNMAALTEA | 3.29
61 | FSDPSQYDPETKDFWLNMAALTEA | 2.69
62 | FSDPSMSDPETKDFWLNMAALTEA | 2.66
63 | FSDPSWSDPETKDFWLNMAALTEA | 1.75
64 | FSDPSNSDPETKDFWLNMAALTEA | 2.56
65 | FSDPSYSDPETKDFWLNMAALTEA | 1.81
66 | FSDPSTSDPETKDFWLNMAALTEA | 2.68
67 | FSDPSSSDPETKDFWLNMAALTEA | 2.66
68 | FSDPSQSDPETKDFWLNMAALTES | 3.4
69 | FSDPSQSDPETKDFWLNMAALTEQ | 3.27
70 | FSDPSQSDPETKDFWLNMAALTEH | 2.89
71 | FSDPSQSDPETKDFWLNMAALTEN | 3.23
72 | FSDPSQSDPETKDFWLNMAAMTEA | 2.77

Row | Variant | protein stability index
73 | FSDPSQSDPETKDFWLNMAAYTEA | 2.38
74 | FSDPSQSDPETKDFWLNMAANTEA | 2.88
75 | FSDPSQSDPETKDFWLNMAASTEA | 2.62
76 | FSDPSQSDPETKDFWLNMAAGTEA | 2.52
77 | FSDPSQSDPETKDFWLNMAARTEA | 2.95
78 | FSDPSQSDPETKEFWLNMAALTEA | 3.62
79 | FSDPSQSDPETKPFWLNMAALTEA | 2.37
80 | FSDPSQSDPETKYFWLNMAALTEA | 2.25
81 | FSDPSQSDPETKGFWLNMAALTEA | 2.96
82 | FSDPSQSDPETKKFWLNMAALTEA | 2.33
83 | FSDPSQSDPETKCFWLNMAALTEA | 1.77
84 | FSDPSQSDPETKLFWLNMAALTEA | 1.82
85 | FSDASQSDPETKDFWLNMAALTEA | 2.81
86 | FSDNSQSDPETKDFWLNMAALTEA | 2.04
87 | FSDLSQSDPETKDFWLNMAALTEA | 2.45
88 | FSDTSQSDPETKDFWLNMAALTEA | 2.23
89 | FSDWSQSDPETKDFWLNMAALTEA | 1.85
90 | FSDHSQSDPETKDFWLNMAALTEA | 2.16
91 | FSDGSQSDPETKDFWLNMAALTEA | 2.38
92 | FSDMSQSDPETKDFWLNMAALTEA | 2.21
93 | FSDQSQSDPETKDFWLNMAALTEA | 2.67
94 | FSDDSQSDPETKDFWLNMAALTEA | 3.49
